{"source": "paper PMC6945034", "about": "“A Genetic Screen To Identify Genes Influencing the Secondary Redox Couple NADPH/NADP^+ in the Yeast Saccharomyces cerevisiae” (G3: Genes|Genomes|Genetics, 2019)", "key": {"purified protein [1]": {"substrate": "O=C(O)C(=O)CO", "assay": "purified protein", "format": "biochemical, Saccharomyces cerevisiae", "settings": "0.25 mM NADPH, 50 mM potassium phosphate pH 7.4, 30 C, substrate 0-40 mM"}, "purified protein [2]": {"substrate": "O=CC(=O)O", "assay": "purified protein", "format": "biochemical, Saccharomyces cerevisiae", "settings": "0.25 mM NADPH, 50 mM potassium phosphate pH 7.4, 30 C, substrate 0-40 mM"}}, "data": [{"protein": "Gor1p (Saccharomyces cerevisiae S288C) (protein, C-terminal 6xHis tag, tag cut not mentioned, expressed in E. coli BL21(DE3), Ni-NTA purified) MSKKPIVLKLGKDAFGDQAWGELEKIADVITIPESTTREQFLREVKDPQNKLSQVQVITRTARSVKNTGRFDEELALALPSSVVAVCHTGAGYDQIDVEPFKKRHIQVANVPDLVSNATADTHVFLLLGALRNFGIGNRRLIEGNWPEAGPACGSPFGYDPEGKTVGILGLGRIGRCILERLKPFGFENFIYHNRHQLPSEEEHGCEYVGFEEFLKRSDIVSVNVPLNHNTHHLINAETIEKMKDGVVIVNTARGAVIDEQAMTDALRSGKIRSAGLDVFEYEPKISKELLSMSQVLGLPHMGTHSVETRKKMEELVVENAKNVILTGKVLTIVPELQNEDWPNESKPLV", "values": [{"measurement": "Km", "setting": "purified protein [1]", "value": 22.7, "unit": "mM"}, {"measurement": "Km", "setting": "purified protein [2]", "value": 8.4, "unit": "mM"}]}]}
